In one test the target is T1, human VEGF-A (human, UniProt P15692-4 27-191, limits assumed).
T1 construct: Recombinant, bought or produced in CHO or Pichia pastoris; also called hVEGF-A
The test can be described thus: SPR (ProteOn). The protocol: (§1) SPR was measured using a ProteOn instrument (BioRad) and measurement was performed according standard procedures known to the person skilled in the art.

In the next test the target is T2, human serum albumin (human, UniProt P02768 25-609).
T2 construct: For SEC-MALS purified from CSL Behring 20% solution; also called HSA; SA (human)
The test can be described thus: size exclusion chromatography coupled to static light scattering. On the technique in general: Size exclusion chromatography separates by hydrodynamic size, large species first.

For test [1], the target named is T3, human HGF (human, UniProt P14210 32-728).
T3 construct: also called hepatocyte growth factor
The test can be described thus: cMet receptor competition ELISA; 5 nM human HGF, immobilised human cMet. The source says: Such assays are well known to the person skilled in the art. For designed ankyrin repeat domains with binding specificity to VEGF-A, a quantitative sandwich enzyme immunoassay technique was used according to the manufacturer (VEGF-A Quantikine kit DVE00, R&D Systems). A monoclonal antibody specific for VEGF-A was pre-coated onto a microplate. VEGF-A standards and mixtures of VEGF-A (20 pM) and Protein #18, #19, or #20 at varying concentrations were applied to the wells and any free VEGF-A present (i.e. not bound to the designed ankyrin repeat domain) is bound by the immobilized antibody. After washing away any unbound substances, an enzyme-linked polyclonal antibody specific for VEGF-A is added to the wells. Following a wash to remove any unbound antibody-enzyme reagent, a substrate solution is added to the wells and color develops in proportion to the amount of VEGF-A bound in the initial step. The color development is stopped and the intensity of the color is measured. […] IC₅₀ values were calculated from such titration curves obtained as described above using Graph Pad Prism software and standard procedures known to the person skilled in the art. For designed ankyrin repeat domains with binding specificity to HGF, a cMet receptor competition assay was performed. For that purpose, 5 nM of human cMet receptor in PBS were immobilized on Maxisorp plates overnight at 4° C. After washing with PBS 0.05% TWEEN 20, the plate was blocked for 2 h with shaking at 300 rpm using PBS containing 0.05% TWEEN 20 and 0.25% Casein at RT. A constant concentration of 5 nM human HGF was pre-incubated for 30 min at RT with a 1000 nM-1 pM of Proteins #23, #26, #28, and #29 (1:4 dilution series each) on a dilution plate in PBS 0.05% TWEEN 20. After washing of the ELISA plate with PBS 0.05% TWEEN, pre-incubated samples were transferred to the ELISA plate and plate was incubated for 2 h at RT with shaking at 300 rpm. After washing with PBS 0.25% TWEEN, 200 ng/ml anti human HGF antibody was added for 1 h at RT with shaking at 300 rpm. After washing with PBS 0.05% TWEEN, 100 ng/ml HRP conjugated polyclonal anti HGF species antibody was added for 30 min at RT with shaking at 300 rpm. Detection was using 1:3 diluted BM blue POD (Roche).
For orientation: ELISA stands for enzyme-linked immunosorbent assay.

In test [2] the target is T3, human HGF. The test can be described thus: SPR (ProteOn). The protocol:
as §1

The Kd is the free concentration of one partner at which half of the binding sites on the other are occupied at equilibrium, for simple one-to-one binding. A lower Kd goes with higher affinity. Usually IC50 stands for the concentration at which inhibition is half-maximal. Read a low IC50 as inhibition by little substance.

T3 sequence (P14210 32-728 limits assumed): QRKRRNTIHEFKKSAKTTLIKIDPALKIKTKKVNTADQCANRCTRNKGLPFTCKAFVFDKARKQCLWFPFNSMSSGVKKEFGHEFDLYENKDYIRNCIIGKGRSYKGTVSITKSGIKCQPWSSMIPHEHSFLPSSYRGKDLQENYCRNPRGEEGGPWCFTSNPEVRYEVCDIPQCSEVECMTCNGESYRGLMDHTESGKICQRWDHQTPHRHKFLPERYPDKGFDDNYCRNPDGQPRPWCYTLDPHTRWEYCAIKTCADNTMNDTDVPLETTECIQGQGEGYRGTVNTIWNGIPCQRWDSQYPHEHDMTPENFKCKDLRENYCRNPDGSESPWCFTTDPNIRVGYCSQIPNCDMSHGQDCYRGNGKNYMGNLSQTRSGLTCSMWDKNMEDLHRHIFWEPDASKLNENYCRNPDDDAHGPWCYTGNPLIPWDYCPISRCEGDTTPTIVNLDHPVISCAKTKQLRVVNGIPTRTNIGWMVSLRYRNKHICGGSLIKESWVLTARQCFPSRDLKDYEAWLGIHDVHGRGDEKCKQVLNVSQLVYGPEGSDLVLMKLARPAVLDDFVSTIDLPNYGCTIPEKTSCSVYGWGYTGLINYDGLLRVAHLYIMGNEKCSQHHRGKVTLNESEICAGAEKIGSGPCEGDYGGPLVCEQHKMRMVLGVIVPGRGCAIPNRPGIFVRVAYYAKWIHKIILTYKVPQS
T1 sequence (P15692 other isoform, or with tags, fused parts or gaps limits assumed): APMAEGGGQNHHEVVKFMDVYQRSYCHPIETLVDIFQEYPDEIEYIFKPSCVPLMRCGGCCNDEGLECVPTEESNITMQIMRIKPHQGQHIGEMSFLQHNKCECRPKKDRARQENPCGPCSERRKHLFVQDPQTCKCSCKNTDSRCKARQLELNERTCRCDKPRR
T2 sequence (P02768 25-609 limits assumed): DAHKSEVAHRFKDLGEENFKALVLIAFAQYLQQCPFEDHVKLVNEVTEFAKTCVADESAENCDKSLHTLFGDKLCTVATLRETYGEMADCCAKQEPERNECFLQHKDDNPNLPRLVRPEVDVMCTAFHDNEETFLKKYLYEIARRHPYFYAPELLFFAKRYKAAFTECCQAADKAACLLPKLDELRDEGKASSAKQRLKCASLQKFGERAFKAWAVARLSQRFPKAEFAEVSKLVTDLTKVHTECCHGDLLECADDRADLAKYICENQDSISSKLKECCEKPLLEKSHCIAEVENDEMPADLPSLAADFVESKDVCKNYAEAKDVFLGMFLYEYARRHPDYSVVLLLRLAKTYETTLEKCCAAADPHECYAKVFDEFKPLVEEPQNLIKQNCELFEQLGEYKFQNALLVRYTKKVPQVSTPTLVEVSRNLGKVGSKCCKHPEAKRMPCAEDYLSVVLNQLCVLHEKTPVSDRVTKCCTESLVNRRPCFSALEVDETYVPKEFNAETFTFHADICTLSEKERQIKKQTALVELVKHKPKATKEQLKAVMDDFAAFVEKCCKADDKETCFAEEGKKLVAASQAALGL

B1: Protein #16 (designed binder)
chain: MRGSHHHHHHGSDLDKKLLEAARAGQDDEVRILMANGADVNAKDSTGYTPLHLAAPWGHLEIVEVLLKAGADVNAKDYQGWTPLHLAAAVGHLEIVEVLLKAGADVNAQDKSGKTPADLAADAGHEDIAEVLQKAA
With B1, the Kd with human VEGF-A came to 0.141 nM.

B2: Protein #21 (designed binder)
chain: MRGSHHHHHHGSDLDKKLLEAARAGQDDEVRILLKAGADVNAKDSTGWTPLHLAAPWGHPEIVEVLLKAGADVNAKDYQGWTPLHLAAAVGHLEIVEVLLKAGADVNAQDKSGKTPADLAADAGHEDIAEVLQKAA
As to B2, the binding result with human VEGF-A is “binds”.

B3: Protein #109 (designed binder)
chain: MRGSHHHHHHGSDLGKKLLEAARAGQDDEVRILMANGADVNAKDYFSHTPLHLAARNGHLKIVEVLLKAGADVNAKDFAGKTPLHLAANDGHLEIVEVLLKHGADVNAQDIFGKTPADIAADAGHEDIAEVLQKLGSPTPTPTTPTPTPTTPTPTPTGSRSDLGKKLLEAARAGQDDEVRILMANGADVNAKDYFSHTPLHLAARNGHLKIVEVLLKAGADVNAKDFAGKTPLHLAANDGHLEIVEVLLKHGADVNAQDIFGKTPADIAADAGHEDIAEVLQKLGSPTPTPTTPTPTPTTPTPTPTGSRSDLGKKLLEAARAGQDDEVRILMANGADVNAKDKDGYTPLHLAAREGHLEIVEVLLKAGADVNAKDKDGYTPLHLAAREGHLEIVEVLLKAGADVNAQDKFGKTAFDISIDNGNEDLAEILQKLGSPTPTPTTPTPTPTTPTPTPTGSRSDLGKKLLEAARAGQDDEVRILMANGADVNAKDKDGYTPLHLAAREGHLEIVEVLLKAGADVNAKDKDGYTPLHLAAREGHLEIVEVLLKAGADVNAQDKFGKTAFDISIDNGNEDLAEILQKLN
On to B3, for which, in the test with human serum albumin, the binding result was “binds”.

B4: Protein #23 (designed binder)
chain: MRGSHHHHHHGSDLGKKLLEAARAGQDDEVRILMANGADVNAKDRFGDTPLHLAADIGHLKIVEVLLKHGADVNAEDWFGNTPLHLAASMGHLEIVEVLLKYGADVNAMDDYGNTPLHLAANTGHLEIVEVLLKHGADVNAQDKFGKTAFDISIDNGNEDLAEILQKAA
In the test with human HGF [1], B4 had a half-maximal inhibitory concentration (IC50) of 0.915 nM. The molecule also registered a Kd with human HGF [2] of 0.016 nM.

B5: Protein #97 (designed binder)
chain: MRGSHHHHHHGSDLGKKLLEAARAGQDDEVRILMANGADVNAKDYFSHTPLHLAARNGHLKIVEVLLKAGADVNAKDFAGKTPLHLAANDGHLEIVEVLLKHGADVNAQDIFGKTPADIAADAGHEDIAEVLQKLGSPTPTPTTPTPTPTTPTPTPTGSRSDLGKKLLEAARAGQDDEVRILLKAGADVNAKDRYGDTPLHLAADAGHLKIVEVLLKAGADVNAEDYFGNTPLHLAASAGHLEIVEVLLKAGADVNAKDDAGNTPLHLAANTGHLKIVEVLLKAGADVNAQDKSGKTPADLAADAGHEDIAEVLQKLGSPTPTPTTPTPTPTTPTPTPTGSRSDLDKKLLEAARAGQDDEVRILLKAGADVNAKDYLGWTPLHLAAHEGHLEIVEVLLKAGADVNAKDVSGYTPLHLAAADGHLEIVEVLLKAGADVNAKDNTGWTPLHLSADLGHLEIVEVLLKAGADVNAQDKFGKTAFDISIDNGNEDLAEILQKLGSPTPTPTTPTPTPTTPTPTPTGSRSDLGKKLLEAARAGQDDEVRILMANGADVNAKDYFSHTPLHLAARNGHLKIVEVLLKAGADVNAKDFAGKTPLHLAANDGHLEIVEVLLKHGADVNAQDIFGKTPADIAADAGHEDIAEVLQKLN
For the molecule B5, the binding result with human serum albumin is given as “binds”.

B6: Protein #12 (designed binder)
chain: MRGSHHHHHHGSDLGKKLLEAARAGQDDEVRILMANGADVNAFDWMGWTPLHLAAHEGHLEIVEVLLKNGADVNATDVSGYTPLHLAAADGHLEIVEVLLKHGADVNTKDNTGWTPLHLSADLGHLEIVEVLLKNGADVNAQDKFGKTAFDISIDNGNEDLAEILQKAA
B6 had a Kd in the test with human VEGF-A of 0.094 nM. This counts as picomolar.

B7: Protein #13 (designed binder)
chain: MRGSHHHHHHGSDLDKKLLEAARAGQDDEVRILLKAGADVNAKDYLGWTPLHLAAHEGHLEIVEVLLKAGADVNAKDVSGYTPLHLAAADGHLEIVEVLLKAGADVNAKDNTGWTPLHLSADLGHLEIVEVLLKAGADVNAQDKFGKTAFDISIDNGNEDLAEILQKAA
As to B7, in the test with human VEGF-A, the Kd is 0.096 nM.

B8: Protein #102 (designed binder)
chain: MRGSHHHHHHGSDLGKKLLEAARAGQDDEVRELLKAGADVNAKDYFSHTPLHLAARNGHLKIVEVLLKAGADVNAKDFAGKTPLHLAANDGHLEIVEVLLKAGADVNAQDIFGKTPADIAADAGHEDIAEVLQKAAGSPTPTPTTPTPTPTTPTPTPTGSDLGKKLLEAARAGQDDEVRILLKAGADVNAKDRYGDTPLHLAADIGHLEIVEVLLKAGADVNAEDYFGNTPLHLAASYGHLEIVEVLLKAGADVNAKDDYGNTPLHLAANTGHLEIVEVLLKAGADVNAQDKSGKTPADLAADAGHEDIAEVLQKAAGSPTPTPTTPTPTPTTPTPTPTGSDLDKKLLEAARAGQDDEVRILLKAGADVNAKDSTGWTPLHLAAPWGHPEIVEVLLKAGADVNAKDFQGWTPLHLAAAVGHLEIVEVLLKAGADVNAQDKSGKTPADLAADAGHEDIAEVLQKAAGSPTPTPTTPTPTPTTPTPTPTGSDLGKKLLEAARAGQDDEVRELLKAGADVNAKDYFSHTPLHLAARNGHLKIVEVLLKAGADVNAKDFAGKTPLHLAANDGHLEIVEVLLKAGADVNAQDIFGKTPADIAADAGHEDIAEVLQKAA
Regarding B8, the binding result with human serum albumin was “binds”.

B9: Protein #110 (designed binder)
chain: MRGSHHHHHHGSDLGKKLLEAARAGQDDEVRELLKAGADVNAKDYFSHTPLHLAARNGHLKIVEVLLKAGADVNAKDFAGKTPLHLAANEGHLEIVEVLLKAGADVNAQDIFGKTPADIAADAGHEDIAEVLQKAAGSPTPTPTTPTPTPTTPTPTPTGSDLGKKLLEAARAGQDDEVRELLKAGADVNAKDKSGNTPLHLAARFGHLEIVEFLLKAGADVNAKDETGKTPLHLAAIWGHLEIVEVLLKAGADVNAKDLYGRTPLHLAAKLRHLEIVEVLLKAGADVNAQDKFGKTAFDISIDNGNEDLAEILQKAAGSPTPTPTTPTPTPTTPTPTPTGSDLDKKLLEAARAGQDDEVRELLKAGADVNALDQIGWTPLHLAANYGHLEIVEVLLKAGADVNAKDLWGQTPLHLAAWKGHLEIVEVLLKAGADVNAKDTDGLTPLHLAAIRGHLEIVEVLLKAGADVNAQDKSGKTPADLAADAGHEDIAEVLQKAAGSPTPTPTTPTPTPTTPTPTPTGSDLGKKLLEAARAGQDDEVRELLKAGADVNAKDYFSHTPLHLAARNGHLKIVEVLLKAGADVNAKDFAGKTPLHLAANEGHLEIVEVLLKAGADVNAQDIFGKTPADIAADAGHEDIAEVLQKAA
As for B9, the binding result with human serum albumin is “binds”.

B10: Protein #37 (designed binder)
chain: MRGSHHHHHHGSDLGKKLLEAARAGQDDEVRILMANGADVNASDDTGLTPLHLAANRGHLEIVEVLLKHGADVNANDFAGMTPLHLAANVGHLEIVEVLLKYGADVNAHDDYGLTPLHLAANWRHLEIVEVLLKNGADVNAQDKFGKTAFDISIDNGNEDLAEILQKAA
For the molecule B10, the binding result with human HGF [2] is listed as “binds”.

B11: Protein #14 (designed binder)
chain: MRGSHHHHHHGSDLGKKLLEAARAGQDDEVRILMANGADVNTADSTGWTPLHLAAPWGHPEIVEVLLKNGADVNAHDYQGWTPLHLAATLGHLEIVEVLLKHGADVNAQDKFGKTAFDISIDNGNEDLAEILQKAA
Take B11: in the test with human VEGF-A, the binding result is reported as “binds”.

B12: Protein #22 (designed binder)
chain: MRGSHHHHHHGSDLDKKLLEAARAGQDDEVRILMANGADVNAKDSTGWTPLHLAAPWGHLEIVEVLLKAGADVNAKDFQGWTPLHLAAAVGHLEIVEVLLKAGADVNAQDKFGKTAFDISIDNGNEDLAEILQKAA
For B12, the binding result with human VEGF-A is listed as “binds”.

B13: Protein #15 (designed binder)
chain: MRGSHHHHHHGSDLGKKLLEAARAGQDDEVRILMANGADVNTADSTGWTPLHLAVPWGHLEIVEVLLKYGADVNAKDFQGWTPLHLAAAIGHQEIVEVLLKNGADVNAQDKFGKTAFDISIDNGNEDLAEILQKAA
Take B13: in the test with human VEGF-A, the binding result was “binds”.

B14: Protein #17 (designed binder)
chain: MRGSHHHHHHGSDLGKKLLEAARAGQDDEVRILMANGADVNARDSTGWTPLHLAAPWGHPEIVEVLLKNGADVNAADFQGWTPLHLAAAVGHLEIVEVLLKHGADVNAQDKFGKTAFDISIDNGNEDLAEILQKAA
Turning to B14, the binding result with human VEGF-A was “binds”.

Values taken from patent US20160289285A1 (Molecular Partners, published 2016).
